Reference: paper PMC10786891, “Massively parallel profiling of RNA-targeting CRISPR-Cas13d”

T1: EsCas13d, nuclease-dead (Eubacterium siraeum, UniProt B0MS50, R295A;H300A;R849A;H854A)
T1 sequence: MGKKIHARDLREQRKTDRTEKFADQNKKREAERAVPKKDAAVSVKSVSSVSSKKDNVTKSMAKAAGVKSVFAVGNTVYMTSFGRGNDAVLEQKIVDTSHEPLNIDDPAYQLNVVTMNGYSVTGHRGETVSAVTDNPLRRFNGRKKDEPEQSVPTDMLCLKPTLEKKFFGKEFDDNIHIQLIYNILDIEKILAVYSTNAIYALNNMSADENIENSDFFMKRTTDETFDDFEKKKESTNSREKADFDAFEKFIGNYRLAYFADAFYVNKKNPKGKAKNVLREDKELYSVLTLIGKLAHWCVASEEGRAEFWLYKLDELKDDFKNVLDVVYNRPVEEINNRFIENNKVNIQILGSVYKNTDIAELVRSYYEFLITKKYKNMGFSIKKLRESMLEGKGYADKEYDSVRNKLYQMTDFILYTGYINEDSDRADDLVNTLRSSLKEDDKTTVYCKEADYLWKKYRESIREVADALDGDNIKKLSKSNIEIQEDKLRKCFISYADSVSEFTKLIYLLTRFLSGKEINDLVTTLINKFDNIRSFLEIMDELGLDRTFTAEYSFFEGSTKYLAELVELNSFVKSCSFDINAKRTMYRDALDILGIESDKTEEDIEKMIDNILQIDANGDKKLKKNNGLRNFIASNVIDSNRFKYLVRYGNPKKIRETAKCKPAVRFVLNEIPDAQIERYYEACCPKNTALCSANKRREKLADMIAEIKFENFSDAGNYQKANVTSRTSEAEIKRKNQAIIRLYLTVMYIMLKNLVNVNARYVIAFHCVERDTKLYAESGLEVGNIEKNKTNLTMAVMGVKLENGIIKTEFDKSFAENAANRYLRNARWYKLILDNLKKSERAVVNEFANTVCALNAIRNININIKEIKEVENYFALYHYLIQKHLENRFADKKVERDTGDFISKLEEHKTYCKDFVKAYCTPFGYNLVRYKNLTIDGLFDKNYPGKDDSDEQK


target: T1, EsCas13d, nuclease-dead; experiment: crRNA (strand 1, pre-loaded); Mg2+; 40 mM Tris-HCl pH 7.5, 150 mM NaCl, 6 mM MgCl2, 1 mM DTT, 0.1% Tween-20, 0.2 mg/ml BSA; 25 C; 10 min per concentration, then washed; settings: tags: His6-TwinStrep-SUMO cleaved; N-terminal SNAP kept (SNAP-Surface 488); label: 3' end held by stalled T7 RNA polymerase

Binder | Kd [nM]
target 1 complement block 2-4 (mixed) RNA 1: CACCCGUGCAAAAAUGCAGGGGUCUAAAACUGAGCGGAUAACCUCUCUAUGG RNA 2: GGGAAUGGAUCCACAUCUACGAAUUCGUACCAUAGAGAGGUUAUCCGGAGACCGAGAUCGGAAGAGCACACGU | 11 ± 0.5
target 1 insA 3' of 10,insA 3' of 4 (mixed) RNA 1: CACCCGUGCAAAAAUGCAGGGGUCUAAAACUGAGCGGAUAACCUCUCUAUGG RNA 2: GGGAAUGGAUCCACAUCUACGAAUUCGUACCAUAGAGAGGUUAAUCCGCAUCACCGAGAUCGGAAGAGCACACGU | 6.5 ± 0.4
target 1 insG 3' of 10,insG 3' of 1 (mixed) RNA 1: CACCCGUGCAAAAAUGCAGGGGUCUAAAACUGAGCGGAUAACCUCUCUAUGG RNA 2: GGGAAUGGAUCCACAUCUACGAAUUCGUACCAUAGAGAGGUUGAUCCGCUCAGCCGAGAUCGGAAGAGCACACGU | 22.5 ± 2
target 1 C6G,G12A (mixed) RNA 1: CACCCGUGCAAAAAUGCAGGGGUCUAAAACUGAGCGGAUAACCUCUCUAUGG RNA 2: GGGAAUGGAUCCACAUCUACGAAUUCGUACCAUAGAGAGAUUAUCGGCUCACCGAGAUCGGAAGAGCACACGU | 10.8 ± 0.7
target 1 insG 3' of 10,insC 3' of 1 (mixed) RNA 1: CACCCGUGCAAAAAUGCAGGGGUCUAAAACUGAGCGGAUAACCUCUCUAUGG RNA 2: GGGAAUGGAUCCACAUCUACGAAUUCGUACCAUAGAGAGGUUGAUCCGCUCACCCGAGAUCGGAAGAGCACACGU | 26.8 ± 2.5
target 1 insG 3' of 10,insA 3' of 2 (mixed) RNA 1: CACCCGUGCAAAAAUGCAGGGGUCUAAAACUGAGCGGAUAACCUCUCUAUGG RNA 2: GGGAAUGGAUCCACAUCUACGAAUUCGUACCAUAGAGAGGUUGAUCCGCUCAACCGAGAUCGGAAGAGCACACGU | 22.2 ± 1.4
target 1 G15C,C21A (mixed) RNA 1: CACCCGUGCAAAAAUGCAGGGGUCUAAAACUGAGCGGAUAACCUCUCUAUGG RNA 2: GGGAAUGGAUCCACAUCUACGAAUUCGUACAAUAGACAGGUUAUCCGCUCACCGAGAUCGGAAGAGCACACGU | ~50
target 1 insG 3' of 2,insU 3' of 2 (mixed) RNA 1: CACCCGUGCAAAAAUGCAGGGGUCUAAAACUGAGCGGAUAACCUCUCUAUGG RNA 2: GGGAAUGGAUCCACAUCUACGAAUUCGUACCAUAGAGAGGUUAUCCGCUCGUACCGAGAUCGGAAGAGCACACGU | 8.9 ± 0.9
target 1 G5U,G12A (mixed) RNA 1: CACCCGUGCAAAAAUGCAGGGGUCUAAAACUGAGCGGAUAACCUCUCUAUGG RNA 2: GGGAAUGGAUCCACAUCUACGAAUUCGUACCAUAGAGAGAUUAUCCUCUCACCGAGAUCGGAAGAGCACACGU | 42 ± 5
target 1 U3A,A18U (mixed) RNA 1: CACCCGUGCAAAAAUGCAGGGGUCUAAAACUGAGCGGAUAACCUCUCUAUGG RNA 2: GGGAAUGGAUCCACAUCUACGAAUUCGUACCAUUGAGAGGUUAUCCGCACACCGAGAUCGGAAGAGCACACGU | 33 ± 5
target 1 G15A,G17C (mixed) RNA 1: CACCCGUGCAAAAAUGCAGGGGUCUAAAACUGAGCGGAUAACCUCUCUAUGG RNA 2: GGGAAUGGAUCCACAUCUACGAAUUCGUACCAUACAAAGGUUAUCCGCUCACCGAGAUCGGAAGAGCACACGU | 62 ± 16
target 1 del8,del13 (mixed) RNA 1: CACCCGUGCAAAAAUGCAGGGGUCUAAAACUGAGCGGAUAACCUCUCUAUGG RNA 2: GGGAAUGGAUCCACAUCUACGAAUUCGUACCAUAGAGAGUUACCGCUCACCGAGAUCGGAAGAGCACACGU | 16.1 ± 0.8
target 1 insC 3' of 9,insC 3' of 3 (mixed) RNA 1: CACCCGUGCAAAAAUGCAGGGGUCUAAAACUGAGCGGAUAACCUCUCUAUGG RNA 2: GGGAAUGGAUCCACAUCUACGAAUUCGUACCAUAGAGAGGUUACUCCGCUCCACCGAGAUCGGAAGAGCACACGU | 11 ± 1
target 1 U19A,A20C (mixed) RNA 1: CACCCGUGCAAAAAUGCAGGGGUCUAAAACUGAGCGGAUAACCUCUCUAUGG RNA 2: GGGAAUGGAUCCACAUCUACGAAUUCGUACCCAAGAGAGGUUAUCCGCUCACCGAGAUCGGAAGAGCACACGU | 45 ± 6
target 1 insG 3' of 22,insC 3' of 19 (mixed) RNA 1: CACCCGUGCAAAAAUGCAGGGGUCUAAAACUGAGCGGAUAACCUCUCUAUGG RNA 2: GGGAAUGGAUCCACAUCUACGAAUUCGUACGCAUCAGAGAGGUUAUCCGCUCACCGAGAUCGGAAGAGCACACGU | 52 ± 8
target 1 A1U,A16G (mixed) RNA 1: CACCCGUGCAAAAAUGCAGGGGUCUAAAACUGAGCGGAUAACCUCUCUAUGG RNA 2: GGGAAUGGAUCCACAUCUACGAAUUCGUACCAUAGGGAGGUUAUCCGCUCUCCGAGAUCGGAAGAGCACACGU | 33 ± 7
target 1 insG 3' of 14,insA 3' of 3 (mixed) RNA 1: CACCCGUGCAAAAAUGCAGGGGUCUAAAACUGAGCGGAUAACCUCUCUAUGG RNA 2: GGGAAUGGAUCCACAUCUACGAAUUCGUACCAUAGAGAGGGUUAUCCGCUACACCGAGAUCGGAAGAGCACACGU | 11.4 ± 0.8
target 1 A1G,A16G (mixed) RNA 1: CACCCGUGCAAAAAUGCAGGGGUCUAAAACUGAGCGGAUAACCUCUCUAUGG RNA 2: GGGAAUGGAUCCACAUCUACGAAUUCGUACCAUAGGGAGGUUAUCCGCUCGCCGAGAUCGGAAGAGCACACGU | 32.2 ± 3
target 1 C6U,C22G (mixed) RNA 1: CACCCGUGCAAAAAUGCAGGGGUCUAAAACUGAGCGGAUAACCUCUCUAUGG RNA 2: GGGAAUGGAUCCACAUCUACGAAUUCGUAGCAUAGAGAGGUUAUCUGCUCACCGAGAUCGGAAGAGCACACGU | 39 ± 8
target 1 C2U,G17C (mixed) RNA 1: CACCCGUGCAAAAAUGCAGGGGUCUAAAACUGAGCGGAUAACCUCUCUAUGG RNA 2: GGGAAUGGAUCCACAUCUACGAAUUCGUACCAUACAGAGGUUAUCCGCUUACCGAGAUCGGAAGAGCACACGU | 42 ± 5
target 1 insG 3' of 21,insA 3' of 5 (mixed) RNA 1: CACCCGUGCAAAAAUGCAGGGGUCUAAAACUGAGCGGAUAACCUCUCUAUGG RNA 2: GGGAAUGGAUCCACAUCUACGAAUUCGUACCGAUAGAGAGGUUAUCCGACUCACCGAGAUCGGAAGAGCACACGU | 37 ± 9
target 1 insC 3' of 20,insA 3' of 2 (mixed) RNA 1: CACCCGUGCAAAAAUGCAGGGGUCUAAAACUGAGCGGAUAACCUCUCUAUGG RNA 2: GGGAAUGGAUCCACAUCUACGAAUUCGUACCACUAGAGAGGUUAUCCGCUCAACCGAGAUCGGAAGAGCACACGU | 10 ± 0.6
target 1 G5U,G17C (mixed) RNA 1: CACCCGUGCAAAAAUGCAGGGGUCUAAAACUGAGCGGAUAACCUCUCUAUGG RNA 2: GGGAAUGGAUCCACAUCUACGAAUUCGUACCAUACAGAGGUUAUCCUCUCACCGAGAUCGGAAGAGCACACGU | 80 ± 40
target 1 insU 3' of 18,insC 3' of 9 (mixed) RNA 1: CACCCGUGCAAAAAUGCAGGGGUCUAAAACUGAGCGGAUAACCUCUCUAUGG RNA 2: GGGAAUGGAUCCACAUCUACGAAUUCGUACCAUAUGAGAGGUUACUCCGCUCACCGAGAUCGGAAGAGCACACGU | 50 ± 5
target 1 insG 3' of 10,insC 3' of 10 (mixed) RNA 1: CACCCGUGCAAAAAUGCAGGGGUCUAAAACUGAGCGGAUAACCUCUCUAUGG RNA 2: GGGAAUGGAUCCACAUCUACGAAUUCGUACCAUAGAGAGGUUGCAUCCGCUCACCGAGAUCGGAAGAGCACACGU | 23.5 ± 1.7
target 1 insG 3' of 10,insU 3' of 1 (mixed) RNA 1: CACCCGUGCAAAAAUGCAGGGGUCUAAAACUGAGCGGAUAACCUCUCUAUGG RNA 2: GGGAAUGGAUCCACAUCUACGAAUUCGUACCAUAGAGAGGUUGAUCCGCUCAUCCGAGAUCGGAAGAGCACACGU | 33 ± 5
target 1 insG 3' of 18,insG 3' of 2 (mixed) RNA 1: CACCCGUGCAAAAAUGCAGGGGUCUAAAACUGAGCGGAUAACCUCUCUAUGG RNA 2: GGGAAUGGAUCCACAUCUACGAAUUCGUACCAUAGGAGAGGUUAUCCGCUCGACCGAGAUCGGAAGAGCACACGU | ~70
target 1 insU 3' of 2,insU 3' of 2 (mixed) RNA 1: CACCCGUGCAAAAAUGCAGGGGUCUAAAACUGAGCGGAUAACCUCUCUAUGG RNA 2: GGGAAUGGAUCCACAUCUACGAAUUCGUACCAUAGAGAGGUUAUCCGCUCUUACCGAGAUCGGAAGAGCACACGU | 9.6 ± 0.7
